Where a chain is given by its changes, count along the chain named.
T1: C-term Biotin Nav1.7 (3-1) peptide, human (human, not fully specified; C-terminal biotin attached via a G4S linker)
T1 construct: Synthetic peptide; also called Human Nav1.7 3-1 C-term biotin
T1 peptide: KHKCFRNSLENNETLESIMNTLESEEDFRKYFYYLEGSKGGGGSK

T2: Native Nav1.7 (3-1) peptide, human (human)
T2 construct: Synthetic peptide (Celtek), unbiotinylated; also called Human Nav1.7 3-1 native; Nav1.7 3-1 native peptide
T2 peptide: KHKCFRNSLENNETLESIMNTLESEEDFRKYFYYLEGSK

T3: N-Term Biotin Nav1.7 (3-1) peptide, mulatta (mulatta (monkey), not fully specified; N-terminal biotin attached via a G4S linker)
T3 construct: Synthetic peptide; also called Mulatta Nav1.7 3-1 N-term biotin; monkey
T3 peptide: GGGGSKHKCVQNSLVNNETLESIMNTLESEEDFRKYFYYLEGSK

T4: Native Nav1.7 (3-1) peptide, rat (rat)
T4 construct: Synthetic peptide; also called Rat Nav1.7 3-1 native
T4 peptide: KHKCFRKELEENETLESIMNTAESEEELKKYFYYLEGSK

T5: N-Term Biotin Nav1.7 (3-1) peptide, mouse (mouse, not fully specified; N-terminal biotin attached via a G4S linker)
T5 construct: Synthetic peptide; also called Mouse Nav1.7 3-1 N-term biotin
T5 peptide: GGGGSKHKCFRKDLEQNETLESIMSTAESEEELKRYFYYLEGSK

T6: N-Term Biotin-Nav1.7 (3-1) peptide, human (human, not fully specified; N-terminal biotin attached via a G4S linker)
T6 construct: ELISA peptide
T6 peptide: T3 peptide with V10F, Q11R, V15E

B1: H4H367B (antibody, V domains shown)
VH: QVQLVQSGGGVVQPGRSLRLSCAASGFSFSSFGMHWVRQAPGKGLEWVAVISYGGINKHYSDSVKGRFTISRDDSKNTLYLQMNSLRAEDTAVYYCAKREGYRYAYDYWGQGTLVTVSS
VL: DIQMTQSPSSLSASVGDRVTITCRASQGISNYLAWFQQKPGKAPKSLIYGASSLQSGVPSKFSGSGSGTDFTLTISSLQPEDFATYYCQQYNSYPLTFGGGTKVEIKR
B2: H4H397B (antibody, V domains shown)
VH: QVQLVQSGGGVVQPGRSLRLSCAASGFTFSSYGMHWVRQAPGKGLEWVALISYAGINEYYADSVKGRFTISRDDSKNTLYLQMNSLRVEDTAVYYCAKSRGYSYGLGYWGQGTLVTVSS
VL: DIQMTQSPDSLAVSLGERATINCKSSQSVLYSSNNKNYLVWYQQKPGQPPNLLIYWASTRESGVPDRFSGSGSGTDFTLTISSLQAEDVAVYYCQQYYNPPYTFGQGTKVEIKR
B3: H1H1008B (antibody, V domains shown)
VH: EVQLVQSGPGLVKSSETLSLKCTVSGGSISSSGYYWGWIRQPPGKGLEWIGSIHRSGSTFYNPSLKSRVTISVDTSKSQFSLRLTSVTAADTSVYFCGRHGRDYYYGMDVWGQGTTVTVSS
VL: DIQMTQSPSSVSASVGDRVTITCRSSQDINNWLVWYQQKPGKAPKVLIYGASRLQSGVPSRFSGSGSGTDFTLTISSLQPEDFATYYCQQANSFPLTFGGGTKLEIKR
notes: Fully human antibody; also called H4H1008B
B4: H1M834N (antibody, V domains shown)
VH: QVQLVESGGGVVQPGRSQRLSCAASGFTFSHYGMHWVRQAPGKGLEWVAVISYDGNNKHYADSVKGRFTTSRDNSKNTLFLQMNSLRAEDTAVYYCARGYSGYVLDYWGQGTLVTVSS
VL: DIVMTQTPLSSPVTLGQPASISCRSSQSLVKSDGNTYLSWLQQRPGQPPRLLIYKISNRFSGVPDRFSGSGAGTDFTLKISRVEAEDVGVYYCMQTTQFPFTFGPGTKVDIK
B5: H1M875N (antibody, V domains shown)
VH: B4 VH
VL: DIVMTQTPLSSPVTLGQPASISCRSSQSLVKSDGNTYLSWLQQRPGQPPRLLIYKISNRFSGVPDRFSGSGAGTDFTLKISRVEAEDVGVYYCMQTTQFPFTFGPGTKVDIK
notes: also called H1H875N
B6: H1M839N (antibody, V domains shown)
VH: QVQLVESGGGVVQPGRSLRLSCAASGFTFSNYGMHWVRQAPGKGLEWVAVTSYDGSNKHYADSVKGRFSTSRDNPKNTLYLQMDSLRGEDTAVYYCARGYSGFVLDNWGQGTLVTVSS
VL: DIVMTQTPLSSPVTLGQPASISCRSSQSLVKSDGNTYLSWLQQRPGQPPRLLIYKISNRFSGVPDRFSGSGAGTDFTLKISRVEAEDVGIYYCMQTTQFPFTFGPGTKVDIK

Biological target: T1, C-term Biotin Nav1.7 (3-1) peptide, …
Experiment: SPR, captured biotin-peptide, antibody analyte
Protocol: (§1) The binding affinities of anti-Naᵥ 1.7 antibodies to Naᵥ 1.7 loop peptides were determined by Biacore. For monovalent kinetic experiments, antibodies were captured through the Fc region via a goat anti-Fc-coupled biosensor surface, and the peptides (as analyte) were injected over this captured antibody surface. For bivalent (avidity-driven) kinetic experiments, biotinylated peptides corresponding to the Naᵥ 1.7 3-1, 3-3, or paddle loop sequences were captured on a NeutrAvidin sensor surface, and anti-Naᵥ 1.7 antibodies (as analyte) were injected over this surface. Following the capture step, each analyte was individually injected at several concentrations over its respective capture surface, and changes in bound surface units (RU) were monitored. The dissociation rate is independent of the concentration of analyte used in the experiment, and the dissociation rate constant (kd) was determined from the change in antibody-bound analyte RU over time. The Biacore kinetic data were obtained using a double referencing procedure. The double referencing was conducted by first subtracting any interaction of the analyte over the reference surface (i.e., the anti-Fc coupled surface alone or the NeutrAvidin surface alone), thereby correcting for nonspecific binding to capture surface and for refractive index changes. Control buffer injections (no analyte) over the antibody- or peptide-captured surfaces were also performed to allow subtraction of RU signal changes resulting from the natural dissociation of captured binding partner from the sensor surface. The kinetic parameters were obtained by globally fitting the data for all concentrations tested for a given peptide or antibody to a 1:1 binding model using Biacore T100 Evaluation Software version 2.0.2. The KD was calculated as the dissociation rate constant divided by the association rate constant (KD=kd/kₐ). The dissociative half-life (t_{1/2}) was calculated from the dissociation rate constant (t_{1/2}=In2/kd).

Row | Kd | t1/2 | Binder
1 | 0.341 nM | 94 min | B1
2 | 0.299 nM | 206 min | B2
3 | 0.123 nM | 84.2 min | B3
4 | 0.751 nM | 82.5 min | B4
5 | 0.78 nM | 87.2 min | B5
6 | 0.692 nM | 137 min | B6

biological target: T7, full-length human Nav1.7 fused at its N-terminus to GFP, expressed in HEK293 cells (human, UniProt Q15858 1-1988); experiment: flow cytometry; % stained hNav1.7-GFP-HEK293 minus parental HEK293
T7 construct: Voltage-gated sodium channel alpha subunit; In the Western blot it stood as denatured cell lysate; also called hNav 1.7-GFP-HEK293; Nav 1.7-GFP-HEK293; not shown: green fluorescent protein (GFP) at the N-terminus
Protocol: The binding of anti-Naᵥ 1.7 human antibodies to full-length Naᵥ 1.7 expressed in HEK293 cells was determined by flow cytometry (FACS). HEK293 cells were stably-transfected with full-length human Nav1.7 fused at its N-terminus to the green fluorescent protein (GFP) to generate cell line hNaᵥ 1.7-GFP-HEK293. Antibody binding to the transfected cells overexpressing Naᵥ 1.7 was compared to binding to the parental HEK293 cell line. To perform the binding experiments, adherent cells were collected using 1 mM EDTA in PBS, washed and re-suspended in cold PBS containing 5% FBS. For each binding experiment, the anti-Naᵥ 1.7 antibody (at concentrations ranging from 1 nM to 13 nM), was added to 250,000 cells in 500 μL of PBS with 5% FBS. After incubation for 20 minutes on ice, the secondary antibody, recognizing either human-Fc and conjugated to cyanine 5 (Cy5) or recognizing mouse-Fc and conjugated to allophyocyanin (APC), was then added to the cell mixture at a final secondary antibody concentration of 1.7 nM. After incubating for 20 minutes on ice, the cells were resuspended in PBS+5% FBS and then sorted and analyzed on a flow cytometer to determine relative binding by the candidate antibodies. For FACS analysis, gating was applied to examine only healthy live cells in the antibody binding experiments, and percentage stained was recorded. Staining of secondary antibodies alone to Naᵥ 1.7-GFP-HEK293 cells gave low background signals (1-2%). Specific binding was measured as the percent binding to Naᵥ 1.7-GFP-HEK293 cells minus percent binding to parental HEK293 cells.

Row | % Binding Nav1.7 | Binder
7 | 15.8% | B1
8 | 12.5% | B3
9 | 4.8% | B4
10 | 5.9% | B5
11 | 5.1% | B6

Biological target: T2, Native Nav1.7 (3-1) peptide, human
Experiment: SPR, captured antibody, peptide analyte
Protocol: as §1

Row | Kd | t1/2 | Binder
12 | 4.67 nM | 10.5 min | B1
13 | 2.37 nM | 34 min | B2
14 | 4.31 nM | 4 min | B3
15 | 5.53 nM | 12 min | B4
16 | 5.85 nM | 12.5 min | B5
17 | 3.32 nM | 18.2 min | B6

Biological target: T3, N-Term Biotin Nav1.7 (3-1) peptide, …
Experiment: SPR, captured antibody, peptide analyte
Protocol: as §1

Row | Kd | t1/2 | Binder
18 | 0.63 nM | 23.7 min | B1
19 | 0.097 nM | 289 min | B2
20 | 1.11 nM | 17.5 min | B3
21 | 2.39 nM | 20.3 min | B4
22 | 1.89 nM | 26.5 min | B5
23 | 1.47 nM | 28.7 min | B6

Biological target: T4, Native Nav1.7 (3-1) peptide, rat
Experiment: SPR, captured antibody, peptide analyte
Protocol: as §1

Row | Kd | t1/2 | Binder
24 | 88 nM | 0.42 min | B1
25 | 14.2 nM | 3.3 min | B2
26 | 4.67 nM | 3.1 min | B3
27 | 10.2 nM | 2.3 min | B4
28 | 6.7 nM | 3 min | B5
29 | 7.11 nM | 3.2 min | B6

Biological target: T5, N-Term Biotin Nav1.7 (3-1) peptide, …
Experiment: SPR, captured antibody, peptide analyte
Protocol: as §1

Row | Kd | t1/2 | Binder
30 | 107 nM | 0.59 min | B1
31 | 43.5 nM | 3.92 min | B2
32 | 14.8 nM | 1.3 min | B3
33 | 19.2 nM | 2.8 min | B4
34 | 12 nM | 3.2 min | B5
35 | 15.1 nM | 3.1 min | B6

biological target: T7, full-length human Nav1.7 fused at its …; experiment: cell-based or functional assay

Row | Current blocking (Average % inhibition), IonWorks Quattro, 223 nM antibody | Binder
36 | -35% | B1
37 | -50% | B2
38 | 38% | B3
39 | -14% | B4
40 | 25% | B5
41 | 13% | B6

Biological target: T3, N-Term Biotin Nav1.7 (3-1) peptide, …
Experiment: ELISA on coated peptide, antibody 1 ug/ml, OD450 grade
Protocol: (§2) Anti-Naᵥ 1.7 antibodies were tested for their ability to bind to the Naᵥ 1.7 peptides. The various peptides were coated overnight onto 96-well Nunc Immunosorp plates at a concentration of 4 μg/mL in PBS, followed by blocking for 1 hour in a suitable blocking agent. For biotinylated peptides, avidin was first coated on Nunc Immunosorp plates at 2 μg/mL in PBS overnight, followed by blocking as described, and the plate was then coated with biotinylated peptides at a concentration of 0.4 μg/mL and incubated for 1 hour at room temperature. Purified anti-Naᵥ 1.7 antibodies were diluted to a final concentration of 0.1 μg/mL and 1.0 μg/mL and added to the wells of the coated microtiter plates followed by incubation for 1 hour at room temperature. Bound antibodies were detected with horseradish peroxidase (HRP) conjugated anti-mouse or anti-human IgG (Jackson Immuno Research Lab, West Grove, Pa.) depending on the antibody species and developed by colorimetric response using tetramethylbenzidine (TMB) substrate (BD Biosciences). Absorbance was read at OD₄₅₀ on a plate reader for 0.1 second.
(§3) Values in Table 11 represent absolute binding ranges (at OD450) to plate-coated peptides for antibodies added at 1 μg/ml as follows: OD450<0.2: −; 0.2<OD450<1: +; 1<OD450<2: ++; 2<OD450<4: +++; NT: Not Tested.

Row | OD450 | Binder
42 | 2 to 4 od | B1
43 | 2 to 4 od | B2
44 | 2 to 4 od | B3
45 | 2 to 4 od | B4
46 | 2 to 4 od | B5
47 | 2 to 4 od | B6

Biological target: T4, Native Nav1.7 (3-1) peptide, rat
Experiment: as above
Protocol: as §2, §3

Row | OD450 | Binder
48 | 2 to 4 od | B1
49 | 2 to 4 od | B2
50 | 2 to 4 od | B3
51 | 2 to 4 od | B4
52 | 2 to 4 od | B5
53 | 2 to 4 od | B6

Biological target: T5, N-Term Biotin Nav1.7 (3-1) peptide, …
Experiment: as above
Protocol: as §2, §3

Row | OD450 | Binder
54 | 2 to 4 od | B1
55 | 2 to 4 od | B2
56 | 2 to 4 od | B3
57 | 1 to 2 od | B4
58 | 2 to 4 od | B5
59 | 2 to 4 od | B6

Biological target: T6, N-Term Biotin-Nav1.7 (3-1) peptide, …
Experiment: as above
Protocol: as §2, §3

Row | OD450 | Binder
60 | 2 to 4 od | B1
61 | 2 to 4 od | B2
62 | 2 to 4 od | B3
63 | 2 to 4 od | B4
64 | 2 to 4 od | B5
65 | 2 to 4 od | B6
